Source: PMC10491200 (bioRxiv, 2023)

Target: the molecule itself
Experiment: cryo-EM structure

B1: human mGlu5 (21-872), metabotropic glutamate receptor subtype 5, in MSP2N2 lipid nanodisc (receptor)
chain: QSSERRVVAHMPGDIIIGALFSVHHQPTVDKVHERKCGAVREQYGIQRVEAMLHTLERINSDPTLLPNITLGCEIRDSCWHSAVALEQSIEFIRDSLISSEEEEGLVRCVDGSSSSFRSKKPIVGVIGPGSSSVAIQVQNLLQLFNIPQIAYSATSMDLSDKTLFKYFMRVVPSDAQQARAMVDIVKRYNWTYVSAVHTEGNYGESGMEAFKDMSAKEGICIAHSYKIYSNAGEQSFDKLLKKLTSHLPKARVVACFCEGMTVRGLLMAMRRLGLAGEFLLLGSDGWADRYDVTDGYQREAVGGITIKLQSPDVKWFDDYYLKLRPETNHRNPWFQEFWQHRFQCRLEGFPQENSKYNKTCNSSLTLKTHHVQDSKMGFVINAIYSMAYGLHNMQMSLCPGYAGLCDAMKPIDGRKLLESLMKTNFTGVSGDTILFDENGDSPGRYEIMNFKEMGKDYFDYINVGSWDNGELKMDDDEVWSKKSNIIRSVCSEPCEKGQIKVIRKGEVSCCWTCTPCKENEYVFDEYTCKACQLGSWPTDDLTGCDLIPVQYLRWGDPEPIAAVVFACLGLLATLFVTVVFIIYRDTPVVKSSSRELCYIILAGICLGYLCTFCLIAKPKQIYCYLQRIGIGLSPAMSYSALVTKTNRIARILAGSKKKICTKKPRFMSACAQLVIAFILICIQLGIIVALFIMEPPDIMHDYPSIREVYLICNTTNLGVVTPLGYNGLLILSCTFYAFKTRNVPANFNEAKYIAFTMYTTCIIWLAFVPIYFGSNYKIITMCFSVSLSATVALGCMFVPKVYIILAKPERNVRSAFTTSTVVRMHVGDGKSSSAASRSSSLVNLWKRRGSS
  binding result: binds
